Assay [1] addresses human FcRn (human) (UniProt P55899). In words: AlphaScreen competition, human FcRn (n=1); displaced: biotinylated control mAb B21M WT IgG1 (m27); pH 6.0.
Assay [2] deals with recombinant human IL1RAP ECD (human) (UniProt Q9NPH3). In words: SPR (ProteOn).
In assay [3] the target is human FcγRI (human) (UniProt P12314). In words: AlphaScreen competition, human FcγRI (n=1); displaced: biotinylated control mAb B21M hIgG1 AlaAla; pH 7.2. (Bead proximity is the source of the signal in Alpha formats.)

Several values for one entry are separate records, joined by “and”; a condition that tells them apart may be missing. Identical values can stand only once.

Sequence of recombinant human IL1RAP ECD (human) (Q9NPH3 other isoform, or with tags, fused parts or gaps): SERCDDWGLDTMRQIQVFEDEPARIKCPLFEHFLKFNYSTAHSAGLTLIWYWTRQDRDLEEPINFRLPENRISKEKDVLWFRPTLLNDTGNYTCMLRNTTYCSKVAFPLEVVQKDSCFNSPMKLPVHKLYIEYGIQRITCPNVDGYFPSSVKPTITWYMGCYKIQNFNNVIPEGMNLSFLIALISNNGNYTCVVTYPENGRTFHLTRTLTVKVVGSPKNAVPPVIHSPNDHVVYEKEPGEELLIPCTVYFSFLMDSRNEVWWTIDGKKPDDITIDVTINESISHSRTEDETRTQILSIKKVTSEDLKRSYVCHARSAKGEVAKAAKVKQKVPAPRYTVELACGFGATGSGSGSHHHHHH
Sequence of human FcRn (human) (P55899 24-297 limits assumed, form in doubt, chain 1 of 2): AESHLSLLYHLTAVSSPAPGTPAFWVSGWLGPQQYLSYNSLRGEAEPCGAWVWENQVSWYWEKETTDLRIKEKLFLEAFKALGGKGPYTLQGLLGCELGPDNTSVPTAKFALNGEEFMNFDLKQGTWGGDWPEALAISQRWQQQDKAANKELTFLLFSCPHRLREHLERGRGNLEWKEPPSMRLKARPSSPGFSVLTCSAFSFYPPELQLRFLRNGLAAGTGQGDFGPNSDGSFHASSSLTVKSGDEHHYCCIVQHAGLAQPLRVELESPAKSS
Sequence of human FcRn (human) (chain, as listed by the source limits assumed, form in doubt, chain 2 of 2): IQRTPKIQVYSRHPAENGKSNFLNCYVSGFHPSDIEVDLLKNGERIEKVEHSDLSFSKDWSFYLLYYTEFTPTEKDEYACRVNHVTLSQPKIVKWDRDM
Sequence of human FcγRI (human) (P12314 16-292 limits assumed): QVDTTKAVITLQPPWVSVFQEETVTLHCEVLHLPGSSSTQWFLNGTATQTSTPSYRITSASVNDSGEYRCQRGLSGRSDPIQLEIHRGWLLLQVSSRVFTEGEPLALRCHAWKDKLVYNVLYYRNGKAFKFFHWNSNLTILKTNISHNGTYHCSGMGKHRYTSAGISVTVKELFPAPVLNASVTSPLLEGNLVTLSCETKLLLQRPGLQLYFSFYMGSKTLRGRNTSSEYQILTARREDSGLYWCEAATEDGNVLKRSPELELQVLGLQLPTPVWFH

In turn, “Human IgG4-PAA isotype control (antibody)” registered an IC50 (read off the curve) in assay [1] of 200 nM.

Usually Kd stands for the concentration at which binding is half-saturated. Broadly, the koff is the rate constant with which the complex falls apart. In general, kon refers to the second-order rate constant of association. With “anti-human/cyno IL1RAP, mouse IgG1, R&D #MAB676 (antibody)”, in assay [2], the Kd is 1.42 nM and 1.21 nM; the off-rate (koff) is 0.000369 s⁻¹ and 0.000336 s⁻¹; the kon is 260000 M⁻¹ s⁻¹ and 277000 M⁻¹ s⁻¹.

As for wild type hIgG1 (antibody), the IC50 (read off the curve) was determined as 90 nM in assay [1] and 3 nM in assay [3].

The record behind these values is US20190270826A1.
